Results: patent US20240084044A1, “Heteromultivalent Nucleic Acid Scaffolds and Uses Thereof” (George Mason University, priority 2022, published 2024)
Bridges are numbered along the chain shown (N, C = ends). Roman numbers before positions name the chains, in order.

Experiments:
[1] = biological target: T1, IL-1RAcP/ST2/IL-33 ternary complex (Homo sapiens, UniProt O95760+Q01638); assay: Crosslinking assay of ternary complex (trimer) formation with recombinant IL-33, ST2 and IL-1RAcP; type: biochemical
T1 construct: included the extracellular domains, K19-F328 and S21-E359, respectively; the cleaved mature proteins, S112-T270, A117-S269, and R2-S310, respectively; purchased Sino Biologicals ST2 10105-HCCH; IL1RAcP 10121-H08H; IL-33 10368-HNAE; host or cells: ST2 and IL1RAcP: HEK293; IL-33: E. coli
T1 sequence (Q01638 19-328 isoform Q01638-2): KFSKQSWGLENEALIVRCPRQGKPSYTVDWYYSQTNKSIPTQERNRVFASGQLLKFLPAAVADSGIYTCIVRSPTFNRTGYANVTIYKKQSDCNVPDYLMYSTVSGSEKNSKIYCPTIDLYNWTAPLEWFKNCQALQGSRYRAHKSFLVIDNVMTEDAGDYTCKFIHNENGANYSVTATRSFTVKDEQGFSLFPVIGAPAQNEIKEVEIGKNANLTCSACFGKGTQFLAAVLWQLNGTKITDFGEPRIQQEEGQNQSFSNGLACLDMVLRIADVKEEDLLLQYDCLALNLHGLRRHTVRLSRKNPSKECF
T1 sequence (O95760 112-270): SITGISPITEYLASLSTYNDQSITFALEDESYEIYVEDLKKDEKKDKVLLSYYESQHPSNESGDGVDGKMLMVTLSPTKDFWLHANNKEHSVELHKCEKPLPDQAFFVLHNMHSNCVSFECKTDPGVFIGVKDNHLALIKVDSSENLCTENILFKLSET
Description: MSTOP dose curves were performed with a crosslinking assay. Recombinant IL-33, ST2, and IL-1RAcP were combined as described above and incubated at RT for 30 m in PBS or treated with 10 μM of 3WJ scaffold, WT peptides, or MSTOP in a dose range of 10 μM to 1 nM (1:10 serial dilution). Following incubation, 1 μL of 2.5 mM Disuccinimidyl suberate (DSS, 83 μM) homobifunctional crosslinker was added and reactions were incubated for […] at RT., then quenched with 1 μL of 1 M Tris-HCl. Samples were then prepared for electrophoresis.
The native receptor has a KD value of 10 μM illustrative of the fact that the interaction is weak and transient (FIG. 3A). […] The prototype MSTOP was finally assessed for bioactivity via prevention of IL-33/ST2 signaling activation. The MSTOP was first tested in vitro with recombinant ST2, IL-33, and IL-1RAcP incubated together in its endogenous 1:1:1 stoichiometry for 30 minutes. Reactions were then treated with DSS homobifunctional NETS-based crosslinker (final concentration ˜85 μM) to tether formed trimers. Trimer resolved at the predicted 120 kDa in semi-native conditions, while unbound IL-1RAcP resolved at 50 kDa. Quantification of IL-1RAcP at 120 kDa was normalized against total lane IL-1RAcP input, with the untreated trimer control representing 100% trimerization. […]

[2] = tested on: IL-1β signaling (HEK-Blue IL-1β cells); assay: SEAP reporter assay in HEK-Blue IL-1β reporter cells; type: cell-based, human; details: 10 μM; 250 pg/mL IL-1β
Description: HEK-Blue® IL-33 (Invivogen, Cat. #hkb-hil33) and IL-1β cells (Invivogen, Cat #hkb-il1bv2) were cultured in T25 and T75 flasks (NUNC, Cat. #156367 and #156499) in DMEM media supplemented with L-glutamine (Gibco, Cat. #11995-065), 10% Fetal Bovine Serum (Gibco, Cat. #10437-028), 1% Penicillin/Streptomycin (Gibco, Cat. #15140-148), and 0.5% Normacin® (Invivogen, Cat. #ant-hr-1). IL-33 cell growth media also included 1 mL of 250× Selectin Cocktail® (Invivogen, Cat. #hb-sel) and IL-1β cell growth media included 100 μg/mL of Zeocin® (Cat #ant-zn-05). Cells were maintained at 37° C. with humidity and 5% CO2 and were passaged upon reaching 80-85% confluency. To ensure assay consistency, passage number was kept low (<20) to maintain stable ST2 and IL-1RI expression.
IL-33 and IL-1β signaling activation was assessed based on the expression of a SEAP reporter gene. Flasks were washed 2× with prewarmed, sterile PBS (Gibco), scraped in fresh media, and spun down for 5 m at 250×g. Pellet was resuspended in 5 mL test medium (DMEM, 10% heat inactivated FBS, and 1% P/S), cells counted, and concentration adjusted to 2.8×10^5 cell/mL. […] After incubation, SEAP reporter gene phosphatase activity was measured by adding 20 μL of supernatant from each well to 180 μL of QuantiBLUE substrate (Invivogen, Cat #rep-qbs) and incubated an additional 30 min at 37° C. Colorimetric absorbance was measured at 620 nm. […]

HEK-Blue cells = assay: CellTiterGlo cell viability / cellular cytotoxicity assay; type: cell-based, human

MSTOP: 3WJ DNA scaffold whose three DBCO staple strands carry cyclized azidolysine IL-1RAcP hotspot peptides; decoy for IL-33/ST2 (peptide 1 Ac-CKEYGIQRITC-NH2; peptide 2 Ac-AKVGSPKNAVPPC-NH2; peptide 3 Ac-CKGEVAKAAKVKC-NH2; disulfide I:1-I:11, III:1-III:13; thioether II:1-II:13; not fully specified (some residues); also: three peptides held on a 3-way junction DNA scaffold via DBCO staple strands)
reduction of trimer formation ([1]; 1 μM treatment): approximately 40%
reduction in trimer formation ([1]; 10 μM treatment, DSS crosslinking western blot): 70%
reduction in SEAP expression [2]: Negligible reduction
cell viability (HEK-Blue cells; 10 μM, CellTiterGlo): did not decrease cell viability
cellular cytotoxicity (HEK-Blue cells; FIG. 4F, concentrations in μM): not toxic
